Experimental findings from article PMC4097884 are described below.

In test [1] the target is FMRKA peptide, from an IA^b-random peptide baculovirus library peptide on I-Ab (mouse). Kind of test: SPR, equilibrium.
Test [2] deals with 3K peptide peptide on I-Ab (mouse). Kind of test: SPR, equilibrium. On the technique in general: SPR reads the build-up and loss of mass on a sensor chip optically.

In general, Kd refers to a measure of binding affinity in units of concentration. For the substance J809.B5 αY31A, the Kd in test [1] was 22 µM; in test [2] it was 32 µM.
